Results published in patent publication US10442868B2, “Treating hepatitis B virus infections by administering receptor associated protein (RAP)” (Rhode Island Hospital, A Lifespan-Partner, priority 2013, dated 2019).

B1: RAP: Receptor associated protein, chaperone binding LRP and other LDLR family members; universal inhibitor of the LDLR protein family (SEQ ID NO:6) (protein)
chain: MAPRRVRSFLRGLPALLLLLLFLGPWPAASHGGKYSREKNQPKPSPKRESGEEFRMEKLNQLWEKAQRLHLPPVRLAELHADLKIQERDELAWKKLKLDGLDEDGEKEARLIRNLNVILAKYGLDGKKDARQVTSNSLSGTQEDGLDDPRLEKLWHKAKTSGKFSGEELDKLWREFLHHKEKVHEYNVLLETLSRTEEIHENVISPSDLSDIKGSVLHSRHTELKEKLRSINQGLDRLRRVSHQGYSTEAEFEEPRVIDLWDLAQSANLTDKELEAFREELKHFEAKIEKHNHYQKQLEIAHEKLRHAESVGDGERVSRSREKHALLEGRTKELGYTVKKHLQDLSGRISRARHNEL
modifications: human receptor associated protein (RAP)
B2: Pseudomonas exotoxin (protein)
chain: AEEAFDLWNECAKACVLDLKDGVRSSRMSVDPAIADTNGQGVLHYSMVLEGGNDALKLAIDNALSITSDGLTIRLEGGVEPNKPVRYSYTRQARGSWSLNWLVPIGHEKPSNIKVFIHELNAGNQLSHMSPIYTIEMGDELLAKLARDATFFVRAHESNEMQPTLAISHAGVSVVMAQAQPRREKRWSEWASGKVLCLLDPLDGVYNYLAQQRCNLDDTWEGKIYRVLAGNPAKHDLDIKPTVISHRLHFPEGGSLAALTAHQACHLPLETFTRHRQPRGWEQLEQCGYPVQRLVALYLAARLSWNQVDQVIRNALASPGSGGDLGEAIREQPEQARLALTLAAAESERFVRQGTGNDEAGAASADVVSLTCPVAAGECAGPADSGDALLERNYPTGAEFLGDGGDISFSTRGTQNWTVERLLQAHRQLEERGYVFVGYHGTFLEAAQSIVFGGVRARSQDLDAIWRGFYIAGDPALAYGYAQDQEPDARGRIRNGALLRVYVPRSSLPGFYRTGLTLAAPEAAGEVERLIGHPLPLRLDAITGPEEEGGRLETILGWPLAERTVVIPSAIPTDPRNVGGDLDPSSIPDKEQAISALPDYASQPGKPPREDLK
B3: GST-RAP: GST fusion form of RAP tested in HepaRG HBV infection (protein)
chain: YSREKNQPKPSPKRESGEEFRMEKLNQLWEKAQRLHLPPVRLAELHADLKIQERDELAWKKLKLDGLDEDGEKEARLIRNLNVILAKYGLDGKKDARQVTSNSLSGTQEDGLDDPRLEKLWHKAKTSGKFSGEELDKLWREFLHHKEKVHEYNVLLETLSRTEEIHENVISPSDLSDIKGSVLHSRHTELKEKLRSINQGLDRLRRVSHQGYSTEAEFEEPRVIDLWDLAQSANLTDKELEAFREELKHFEAKIEKHNHYQKQLEIAHEKLRHAESVGDGERVSRSREKHALLEGRTKELGYTVKKHLQDLSGRISRARHNEL
modifications: left off: a dimerising Fc or GST
notes: GST fusion form of RAP tested in HepaRG HBV infection

Experiments:
HBV = HBV infection of differentiated HepaRG cells with RAP or GST-RAP, secreted HBsAg by ELISA; format: cell-based; details: overnight with HBV inoculum and increasing concentrations, HBsAg measured 10 days later
Method: Differentiated HepaRG cells (4×10^4), which are susceptible to HBV infection (Gripon et al., Proc Natl Acad Sci USA 99:15655-60, 2002), were incubated overnight with HBV inoculum in the presence or absence of increasing concentrations of RAP or GST-RAP, and washed extensively to remove unbound HBV virions and HBsAg. Medium was changed every 2-3 days. HBsAg level in culture supernatant was measured 10 days later (at this point there was no more residual HBsAg from the inoculum, and signals detected reflect newly synthesized and secreted proteins). The level of HBsAg secreted into the culture supernatant was determined by an ELISA assay using a commercially available kit (e.g., Novus Biologicals, NEO BioLab, Cusabio Biotech Co., Ltd.). Briefly, culture medium was added to wells containing capture antibody (anti-HBsAg), followed by incubation at 37° C. for 30 min. After washing with provided washing buffer, conjugate (anti-HBsAg conjugated with HRP) was added followed by incubation at 37° C. for 30 min.

[1] = test system: differentiated HepaRG cells; assay: Killing of differentiated HepaRG cells by LRP-utilizing toxin, trypan blue staining; format: cell-based, human; details: 500 ng/ml, 37° C. overnight, low dose
Method: Hepatocytes are polarized. LRP is distributed at the basolateral side rather than apical side of hepatocytes (Marzolo et al., Traffic 4:273-88, 2003) consistent with HBV infection from the bloodstream. It was recently reported that HBV preferentially infects hepatocytes near the edge of hepatocyte islands (Schulze et al., Hepatology 55:373-83, 2012). […] Differentiated HepaRG cells were untreated (left panel) or incubated with pseudomonas exotoxin A (500 ng/ml) at 37° C. overnight (right panel), and stained with 0.04% trypan blue to reveal dead (blue) cells under microscopy. The dead cells were mainly located at the periphery of hepatocyte islands, which are also most susceptible to HBV infection.

Row | Molecule | HBsAg secretion to culture supernatant (HBV infectivity) (HBV) | cell killing (trypan blue dead cells) [1]
1 | B1 | dose-dependent reduction of HBsAg secretion | 
2 | B2 |  | selectively killed cells in the periphery of hepatocyte islands
3 | B3 | dose-dependent reduction of HBsAg secretion | 
